Paper PMC10630626 (2023)

B1: anti-idiotypic nanobody for Palivizumab 1 (AIP1^VHH), soluble (VHH)
VHH: DVQLQESGGGLVQAGGSLRLSCVASGLTFRYDMGWFRQAPGKEREFVAQITWRGGSATYYADSVKGRFTIARDIAKNAVYLQMNSLKPEDTAVYYCAAAYGSAGYRPDEYDSWGQGTQVTVSS
B2: anti-idiotypic nanobody for Palivizumab 4 (AIP4^VHH), soluble (VHH)
VHH: DVQLQESGGGLVQAGGSLRLSCVASGRAFSRYDMGWFRQAPGKEREFVAQISWRGGSATSYADTVKGRFTIARDNAKNTVYLQMNSLKPEDTAVYYCNARTPTLSSWGQGTQVTVSS
B3: anti-idiotypic nanobody for Palivizumab 3 (AIP3^VHH), soluble (VHH)
VHH: DVQLQESGGGLVQPGGSLRLSCVASGRTWSIYAMGWFRQAPGKEREFVTAISISRSESVTHYAESVTGRFTISRDNAKNTLHLQMNSLKPEDTAVYFCAADRRSIDPHHTIDYWGQGTQVTVSS
B4: anti-idiotypic nanobody for Palivizumab 2 (AIP2^VHH), soluble (VHH)
VHH: DVQLQESGGGLVQAGGSLRLSCAASESLFRLNAMGWYRQAPGKQRELVAGITTSGDAVYADSVKGRFTISRDSAKNTVYLQTNNLKPEDTAVYYCNVRPRAGTWENARIGVWGQGTQVTVSS

Key:
Experiment in all cases: SPR
[1] = target: Palivizumab single-chain variable fragment, light-heavy order, fused to IgG1 Fc (P^scFvLHFc)
Sequence of Palivizumab single-chain variable fragment, light-heavy order, fused to IgG1 Fc (P^scFvLHFc) (chain, as listed by the source, chain 1 of 2): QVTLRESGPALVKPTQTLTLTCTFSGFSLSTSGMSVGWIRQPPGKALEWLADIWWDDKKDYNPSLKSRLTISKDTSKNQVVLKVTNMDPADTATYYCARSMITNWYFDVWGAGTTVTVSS
Sequence of Palivizumab single-chain variable fragment, light-heavy order, fused to IgG1 Fc (P^scFvLHFc) (chain, as listed by the source, chain 2 of 2): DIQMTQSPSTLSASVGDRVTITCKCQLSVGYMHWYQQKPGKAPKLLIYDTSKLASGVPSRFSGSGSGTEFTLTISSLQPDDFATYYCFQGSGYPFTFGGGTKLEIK

[2] = target: Palivizumab single-chain variable fragment, heavy-light order, fused to IgG1 Fc (P^scFvHLFc)
Sequence of Palivizumab single-chain variable fragment, heavy-light order, fused to IgG1 Fc (P^scFvHLFc) (chain, as listed by the source, chain 1 of 2): as the sequence (chain, as listed by the source, chain 1 of 2) above
Sequence of Palivizumab single-chain variable fragment, heavy-light order, fused to IgG1 Fc (P^scFvHLFc) (chain, as listed by the source, chain 2 of 2): as the sequence (chain, as listed by the source, chain 2 of 2) above

Palivizumab = target: Palivizumab
Sequence of Palivizumab (VH, as listed by the source, chain 1 of 2): as the sequence (chain, as listed by the source, chain 1 of 2) above
Sequence of Palivizumab (VL, as listed by the source, chain 2 of 2): as the sequence (chain, as listed by the source, chain 2 of 2) above

Binder	koff [1] [s⁻¹]	koff [2] [s⁻¹]	koff (Palivizumab) [s⁻¹]
B1	4.2e-05	6.56e-05	–
B2	–	–	0.0148
B3	–	–	0.00308
B4	–	–	0.000733
